The source of these data is paper PMC9135441.

The Km is the concentration of substrate that gives half-maximal velocity.

For data set [1], the system named is CCCCCC(O)C=CC=O. In words: purified protein. To be noted: NADPH.
The subject of data set [2] is O=C[C@H](O)[C@@H](O)[C@H](O)[C@@H](O)CO. In words: purified protein. The following applies: NADPH.

With “aldose reductase (AKR1B1) (Homo sapiens)”, the Km was found to be 51 ± 5 µM in data set [1] and 4.26 ± 0.35 mM in data set [2].
